Values of other authors in publication PMC5615855.

Target: N2B (HEB) N2B (Homo sapiens) (UniProt Q99081)

- Kd: 356 µM
Substance: NHR2 (AML1-ETO) NHR2 (from UniProt Q06455)
